From US20180071366A1 come the findings set out here.

Numbered stars: 1 amine (or outer) side, 2 acyl side, 3 side chain; on linkers, the order of the positions; unused ones are H or OH. Bridge positions count the residues as written; N and C are the ends. Square brackets hold non-standard residues; d marks the D form. * marks the point of attachment. C20 diacid = O=C(O)CCCCCCCCCCCCCCCCCCC(=O)*; γGlu = O=C(O)[C@H](CCC(=O)[*:2])N[*:1]; Hyp = O=C(O)[C@@H]1C[C@@H](O)CN1; NMeI = CC[C@H](C)[C@H](NC)C(=O)O; Aad = N[C@@H](CCCC(=O)O)C(=O)O; Orn = NCCC[C@H](N)C(=O)O; Sar = CNCC(=O)O

For assay [1], the target named is recombinant human amylin 3 receptor (hAMYR3) (human), P30988. As to the kind of experiment: cell-based or functional assay.
Sequence of recombinant human amylin 3 receptor (hAMYR3) (human), P30988 (P30988 25-474, chain 1 of 2): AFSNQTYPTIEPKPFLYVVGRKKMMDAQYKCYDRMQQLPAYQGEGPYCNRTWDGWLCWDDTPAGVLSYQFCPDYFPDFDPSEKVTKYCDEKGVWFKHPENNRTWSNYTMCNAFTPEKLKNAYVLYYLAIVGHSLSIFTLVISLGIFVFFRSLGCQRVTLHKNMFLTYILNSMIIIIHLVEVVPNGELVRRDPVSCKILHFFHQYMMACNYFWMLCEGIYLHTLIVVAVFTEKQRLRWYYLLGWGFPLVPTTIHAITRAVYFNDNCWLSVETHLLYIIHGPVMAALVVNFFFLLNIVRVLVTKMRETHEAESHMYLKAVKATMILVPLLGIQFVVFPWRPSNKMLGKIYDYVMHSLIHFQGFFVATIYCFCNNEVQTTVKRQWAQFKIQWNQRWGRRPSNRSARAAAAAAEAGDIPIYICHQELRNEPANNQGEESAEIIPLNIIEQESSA
Sequence of recombinant human amylin 3 receptor (hAMYR3) (human), P30988 (O60896 24-148, chain 2 of 2, further chain): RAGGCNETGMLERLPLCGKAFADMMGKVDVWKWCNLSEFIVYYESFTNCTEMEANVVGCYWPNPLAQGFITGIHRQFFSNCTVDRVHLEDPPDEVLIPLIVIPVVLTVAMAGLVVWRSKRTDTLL
Assay [2] addresses recombinant human calcitonin receptor (hCT-R) (human), P30988. As to the kind of experiment: cell-based or functional assay.

Sequence of recombinant human calcitonin receptor (hCT-R) (human), P30988 (P30988 25-474): as the sequence (P30988 25-474, chain 1 of 2) above

B1: Compound 26 (peptide)
peptide: {C20 diacid-γGlu}-RDGTAT[Orn]ATERLA[Aad]FLQRAAF[Sar]A[NMeI]LSSTEVGSNT[Hyp]-NH2
modifications: lactam 2-7
SMILES: CC[C@H](C)[C@@H](C(=O)N[C@@H](CC(C)C)C(=O)N[C@@H](CO)C(=O)N[C@@H](CO)C(=O)N[C@H](C(=O)N[C@@H](CCC(=O)O)C(=O)N[C@H](C(=O)NCC(=O)N[C@@H](CO)C(=O)N[C@@H](CC(N)=O)C(=O)N[C@H](C(=O)N1C[C@H](O)C[C@H]1C(N)=O)[C@@H](C)O)C(C)C)[C@@H](C)O)N(C)C(=O)[C@H](C)NC(=O)CN(C)C(=O)[C@H](Cc1ccccc1)NC(=O)[C@H](C)NC(=O)[C@H](C)NC(=O)[C@H](CCCNC(=N)N)NC(=O)[C@H](CCC(N)=O)NC(=O)[C@H](CC(C)C)NC(=O)[C@H](Cc1ccccc1)NC(=O)[C@H](CCCC(=O)O)NC(=O)[C@H](C)NC(=O)[C@H](CC(C)C)NC(=O)[C@H](CCCNC(=N)N)NC(=O)[C@H](CCC(=O)O)NC(=O)[C@@H](NC(=O)[C@H](C)NC(=O)[C@@H]1CCCNC(=O)C[C@H](NC(=O)[C@H](CCCNC(=N)N)NC(=O)CC[C@H](NC(=O)CCCCCCCCCCCCCCCCCCC(=O)O)C(=O)O)C(=O)NCC(=O)N[C@@H]([C@@H](C)O)C(=O)N[C@@H](C)C(=O)N[C@@H]([C@@H](C)O)C(=O)N1)[C@@H](C)O
Take B1: the hAMYR3 EC50 [nM] (cAMP formation, 1321N1 cells expressing hAMYR3) in assay [1] stood at 0.12 nM. In assay [2], the hCT-R EC50 [nM] (cAMP formation, 1321N1 cells expressing hCT-R) is 0.769 nM.

B2: Compound 29 (peptide)
peptide: {C20 diacid-γGlu}-RDPTATKATERLA[Aad]FLQRSSF[Sar]A[NMeI]LSSTEVGSNT[Hyp]-NH2
modifications: lactam 2-7
SMILES: CC[C@H](C)[C@@H](C(=O)N[C@@H](CC(C)C)C(=O)N[C@@H](CO)C(=O)N[C@@H](CO)C(=O)N[C@H](C(=O)N[C@@H](CCC(=O)O)C(=O)N[C@H](C(=O)NCC(=O)N[C@@H](CO)C(=O)N[C@@H](CC(N)=O)C(=O)N[C@H](C(=O)N1C[C@H](O)C[C@H]1C(N)=O)[C@@H](C)O)C(C)C)[C@@H](C)O)N(C)C(=O)[C@H](C)NC(=O)CN(C)C(=O)[C@H](Cc1ccccc1)NC(=O)[C@H](CO)NC(=O)[C@H](CO)NC(=O)[C@H](CCCNC(=N)N)NC(=O)[C@H](CCC(N)=O)NC(=O)[C@H](CC(C)C)NC(=O)[C@H](Cc1ccccc1)NC(=O)[C@H](CCCC(=O)O)NC(=O)[C@H](C)NC(=O)[C@H](CC(C)C)NC(=O)[C@H](CCCNC(=N)N)NC(=O)[C@H](CCC(=O)O)NC(=O)[C@@H](NC(=O)[C@H](C)NC(=O)[C@@H]1CCCCNC(=O)C[C@H](NC(=O)[C@H](CCCNC(=N)N)NC(=O)CC[C@H](NC(=O)CCCCCCCCCCCCCCCCCCC(=O)O)C(=O)O)C(=O)N2CCC[C@H]2C(=O)N[C@@H]([C@@H](C)O)C(=O)N[C@@H](C)C(=O)N[C@@H]([C@@H](C)O)C(=O)N1)[C@@H](C)O
On to B2, for which, in assay [1], the hAMYR3 EC50 [nM] (cAMP formation, 1321N1 cells expressing hAMYR3) is 0.312 nM. In assay [2], the hCT-R EC50 [nM] (cAMP formation, 1321N1 cells expressing hCT-R) was found to be 1.07 nM.

B3: Compound 30 (peptide)
peptide: {C20 diacid-γGlu}-EDGTATKATERLA[Aad]FLQRSSF[Sar]A[NMeI]PSSTEVGSNT[Hyp]-NH2
modifications: lactam 2-7
SMILES: CC[C@H](C)[C@@H](C(=O)N1CCC[C@H]1C(=O)N[C@@H](CO)C(=O)N[C@@H](CO)C(=O)N[C@H](C(=O)N[C@@H](CCC(=O)O)C(=O)N[C@H](C(=O)NCC(=O)N[C@@H](CO)C(=O)N[C@@H](CC(N)=O)C(=O)N[C@H](C(=O)N1C[C@H](O)C[C@H]1C(N)=O)[C@@H](C)O)C(C)C)[C@@H](C)O)N(C)C(=O)[C@H](C)NC(=O)CN(C)C(=O)[C@H](Cc1ccccc1)NC(=O)[C@H](CO)NC(=O)[C@H](CO)NC(=O)[C@H](CCCNC(=N)N)NC(=O)[C@H](CCC(N)=O)NC(=O)[C@H](CC(C)C)NC(=O)[C@H](Cc1ccccc1)NC(=O)[C@H](CCCC(=O)O)NC(=O)[C@H](C)NC(=O)[C@H](CC(C)C)NC(=O)[C@H](CCCNC(=N)N)NC(=O)[C@H](CCC(=O)O)NC(=O)[C@@H](NC(=O)[C@H](C)NC(=O)[C@@H]1CCCCNC(=O)C[C@H](NC(=O)[C@H](CCC(=O)O)NC(=O)CC[C@H](NC(=O)CCCCCCCCCCCCCCCCCCC(=O)O)C(=O)O)C(=O)NCC(=O)N[C@@H]([C@@H](C)O)C(=O)N[C@@H](C)C(=O)N[C@@H]([C@@H](C)O)C(=O)N1)[C@@H](C)O
For the molecule B3, in assay [1], the hAMYR3 EC50 [nM] (cAMP formation, 1321N1 cells expressing hAMYR3) worked out at 0.122 nM. Also, the hCT-R EC50 [nM] (cAMP formation, 1321N1 cells expressing hCT-R) in assay [2] is 0.232 nM.

B4: Compound 27 (peptide)
peptide: {C20 diacid-γGlu}-RDGTAT[Orn]ATERLA[Aad]FLQRGTF[Sar]A[NMeI]LSSTEVGSNT[Hyp]-NH2
modifications: lactam 2-7
SMILES: CC[C@H](C)[C@@H](C(=O)N[C@@H](CC(C)C)C(=O)N[C@@H](CO)C(=O)N[C@@H](CO)C(=O)N[C@H](C(=O)N[C@@H](CCC(=O)O)C(=O)N[C@H](C(=O)NCC(=O)N[C@@H](CO)C(=O)N[C@@H](CC(N)=O)C(=O)N[C@H](C(=O)N1C[C@H](O)C[C@H]1C(N)=O)[C@@H](C)O)C(C)C)[C@@H](C)O)N(C)C(=O)[C@H](C)NC(=O)CN(C)C(=O)[C@H](Cc1ccccc1)NC(=O)[C@@H](NC(=O)CNC(=O)[C@H](CCCNC(=N)N)NC(=O)[C@H](CCC(N)=O)NC(=O)[C@H](CC(C)C)NC(=O)[C@H](Cc1ccccc1)NC(=O)[C@H](CCCC(=O)O)NC(=O)[C@H](C)NC(=O)[C@H](CC(C)C)NC(=O)[C@H](CCCNC(=N)N)NC(=O)[C@H](CCC(=O)O)NC(=O)[C@@H](NC(=O)[C@H](C)NC(=O)[C@@H]1CCCNC(=O)C[C@H](NC(=O)[C@H](CCCNC(=N)N)NC(=O)CC[C@H](NC(=O)CCCCCCCCCCCCCCCCCCC(=O)O)C(=O)O)C(=O)NCC(=O)N[C@@H]([C@@H](C)O)C(=O)N[C@@H](C)C(=O)N[C@@H]([C@@H](C)O)C(=O)N1)[C@@H](C)O)[C@@H](C)O
For the molecule B4, the hAMYR3 EC50 [nM] (cAMP formation, 1321N1 cells expressing hAMYR3) in assay [1] was 0.325 nM. The hCT-R EC50 [nM] (cAMP formation, 1321N1 cells expressing hCT-R) in assay [2] amounted to 0.521 nM.

B5: Compound 3 (peptide)
peptide: {C20 diacid-γGlu}-RDGTAT[Orn]ATERLAHFLQRSSF[Sar]A[NMeI]LSSTEVGSNT[Hyp]-NH2
modifications: lactam 2-7
SMILES: CC[C@H](C)[C@@H](C(=O)N[C@@H](CC(C)C)C(=O)N[C@@H](CO)C(=O)N[C@@H](CO)C(=O)N[C@H](C(=O)N[C@@H](CCC(=O)O)C(=O)N[C@H](C(=O)NCC(=O)N[C@@H](CO)C(=O)N[C@@H](CC(N)=O)C(=O)N[C@H](C(=O)N1C[C@H](O)C[C@H]1C(N)=O)[C@@H](C)O)C(C)C)[C@@H](C)O)N(C)C(=O)[C@H](C)NC(=O)CN(C)C(=O)[C@H](Cc1ccccc1)NC(=O)[C@H](CO)NC(=O)[C@H](CO)NC(=O)[C@H](CCCNC(=N)N)NC(=O)[C@H](CCC(N)=O)NC(=O)[C@H](CC(C)C)NC(=O)[C@H](Cc1ccccc1)NC(=O)[C@H](Cc1c[nH]cn1)NC(=O)[C@H](C)NC(=O)[C@H](CC(C)C)NC(=O)[C@H](CCCNC(=N)N)NC(=O)[C@H](CCC(=O)O)NC(=O)[C@@H](NC(=O)[C@H](C)NC(=O)[C@@H]1CCCNC(=O)C[C@H](NC(=O)[C@H](CCCNC(=N)N)NC(=O)CC[C@H](NC(=O)CCCCCCCCCCCCCCCCCCC(=O)O)C(=O)O)C(=O)NCC(=O)N[C@@H]([C@@H](C)O)C(=O)N[C@@H](C)C(=O)N[C@@H]([C@@H](C)O)C(=O)N1)[C@@H](C)O
B5: the hAMYR3 EC50 [nM] (cAMP formation, 1321N1 cells expressing hAMYR3) in assay [1] is 0.035 nM. Besides, the hCT-R EC50 [nM] (cAMP formation, 1321N1 cells expressing hCT-R) in assay [2] was 0.081 nM.

B6: Compound 25 (peptide)
peptide: {C20 diacid-γGlu}-RDGTAT[Orn]ATERLA[Aad]FLQRATF[Sar]A[NMeI]LSSTEVGSNT[Hyp]-NH2
modifications: lactam 2-7
SMILES: CC[C@H](C)[C@@H](C(=O)N[C@@H](CC(C)C)C(=O)N[C@@H](CO)C(=O)N[C@@H](CO)C(=O)N[C@H](C(=O)N[C@@H](CCC(=O)O)C(=O)N[C@H](C(=O)NCC(=O)N[C@@H](CO)C(=O)N[C@@H](CC(N)=O)C(=O)N[C@H](C(=O)N1C[C@H](O)C[C@H]1C(N)=O)[C@@H](C)O)C(C)C)[C@@H](C)O)N(C)C(=O)[C@H](C)NC(=O)CN(C)C(=O)[C@H](Cc1ccccc1)NC(=O)[C@@H](NC(=O)[C@H](C)NC(=O)[C@H](CCCNC(=N)N)NC(=O)[C@H](CCC(N)=O)NC(=O)[C@H](CC(C)C)NC(=O)[C@H](Cc1ccccc1)NC(=O)[C@H](CCCC(=O)O)NC(=O)[C@H](C)NC(=O)[C@H](CC(C)C)NC(=O)[C@H](CCCNC(=N)N)NC(=O)[C@H](CCC(=O)O)NC(=O)[C@@H](NC(=O)[C@H](C)NC(=O)[C@@H]1CCCNC(=O)C[C@H](NC(=O)[C@H](CCCNC(=N)N)NC(=O)CC[C@H](NC(=O)CCCCCCCCCCCCCCCCCCC(=O)O)C(=O)O)C(=O)NCC(=O)N[C@@H]([C@@H](C)O)C(=O)N[C@@H](C)C(=O)N[C@@H]([C@@H](C)O)C(=O)N1)[C@@H](C)O)[C@@H](C)O
As for B6, the hAMYR3 EC50 [nM] (cAMP formation, 1321N1 cells expressing hAMYR3) in assay [1] was determined as 0.336 nM. For the same molecule, the hCT-R EC50 [nM] (cAMP formation, 1321N1 cells expressing hCT-R) in assay [2] amounted to 0.844 nM.

B7: Compound 28 (peptide)
peptide: {C20 diacid-γGlu}-RDQTAT[Orn]ATERLA[Aad]FLQRGTF[Sar]A[NMeI]LSSTEVGSNT[Hyp]-NH2
modifications: lactam 2-7
SMILES: CC[C@H](C)[C@@H](C(=O)N[C@@H](CC(C)C)C(=O)N[C@@H](CO)C(=O)N[C@@H](CO)C(=O)N[C@H](C(=O)N[C@@H](CCC(=O)O)C(=O)N[C@H](C(=O)NCC(=O)N[C@@H](CO)C(=O)N[C@@H](CC(N)=O)C(=O)N[C@H](C(=O)N1C[C@H](O)C[C@H]1C(N)=O)[C@@H](C)O)C(C)C)[C@@H](C)O)N(C)C(=O)[C@H](C)NC(=O)CN(C)C(=O)[C@H](Cc1ccccc1)NC(=O)[C@@H](NC(=O)CNC(=O)[C@H](CCCNC(=N)N)NC(=O)[C@H](CCC(N)=O)NC(=O)[C@H](CC(C)C)NC(=O)[C@H](Cc1ccccc1)NC(=O)[C@H](CCCC(=O)O)NC(=O)[C@H](C)NC(=O)[C@H](CC(C)C)NC(=O)[C@H](CCCNC(=N)N)NC(=O)[C@H](CCC(=O)O)NC(=O)[C@@H](NC(=O)[C@H](C)NC(=O)[C@@H]1CCCNC(=O)C[C@H](NC(=O)[C@H](CCCNC(=N)N)NC(=O)CC[C@H](NC(=O)CCCCCCCCCCCCCCCCCCC(=O)O)C(=O)O)C(=O)N[C@@H](CCC(N)=O)C(=O)N[C@@H]([C@@H](C)O)C(=O)N[C@@H](C)C(=O)N[C@@H]([C@@H](C)O)C(=O)N1)[C@@H](C)O)[C@@H](C)O
Take B7: the hAMYR3 EC50 [nM] (cAMP formation, 1321N1 cells expressing hAMYR3) in assay [1] was found to be 0.268 nM. Also, the hCT-R EC50 [nM] (cAMP formation, 1321N1 cells expressing hCT-R) in assay [2] is 1.23 nM.
